For 3 molecules, EC50 results are on record in patent publication US20250011433A1 (published 2025).

Where a chain is given by its changes, count along the chain named.

The target of this experiment is C1q (UniProt P02745 23-245; P02746 28-253; P02747 29-245). The experiment in a line: ELISA.
Chain of C1q (P02745 23-245, chain 1 of 3): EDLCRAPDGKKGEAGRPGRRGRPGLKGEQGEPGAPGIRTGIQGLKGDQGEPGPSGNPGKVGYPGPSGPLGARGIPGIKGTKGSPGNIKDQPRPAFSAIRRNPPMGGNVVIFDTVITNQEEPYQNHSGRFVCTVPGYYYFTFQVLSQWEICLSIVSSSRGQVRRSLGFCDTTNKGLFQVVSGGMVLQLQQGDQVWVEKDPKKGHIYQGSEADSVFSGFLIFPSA
Chain of C1q (P02746 28-253, chain 2 of 3): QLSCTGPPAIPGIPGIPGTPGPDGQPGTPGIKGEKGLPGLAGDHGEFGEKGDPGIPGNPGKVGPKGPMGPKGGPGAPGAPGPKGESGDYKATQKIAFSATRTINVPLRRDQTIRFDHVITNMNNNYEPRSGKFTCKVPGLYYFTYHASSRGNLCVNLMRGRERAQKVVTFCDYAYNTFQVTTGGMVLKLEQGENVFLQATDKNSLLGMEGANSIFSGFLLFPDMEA
Chain of C1q (P02747 29-245, chain 3 of 3): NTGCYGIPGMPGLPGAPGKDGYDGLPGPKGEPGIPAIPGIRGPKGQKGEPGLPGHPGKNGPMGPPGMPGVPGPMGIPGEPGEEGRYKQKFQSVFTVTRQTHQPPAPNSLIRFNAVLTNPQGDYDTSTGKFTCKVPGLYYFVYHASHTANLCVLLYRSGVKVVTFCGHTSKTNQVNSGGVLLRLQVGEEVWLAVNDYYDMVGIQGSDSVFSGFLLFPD

B1: G998 (Fc fusion)
chain: EPKSCDKTHTCPPCPAPELLGGPSVFLFPPKPKDTLMISRTPEVTCVVVDVEFEDPEVKFNWYVDGVEVHNAKTKPREEQYASTYRVVSVLTVLHQDWLNGKEYKCKVTNKALPAPIEKTISKAKGQPREPQVYTLPPSRDELTKNQVSLTCLVKGFYPSDIAVEWESNGQPENNYKTTPPVLDSDGSFFLYSKLTVDKSRWQQGNVFSCSVMHEALHNHYTQKSLSLSPGKERKCCVECPPCP
By EC50 is commonly meant the concentration at which the effect is half-maximal. A lower EC50 goes with a more potent agent. For the molecule B1, the response was half-maximal at 0.334 µg/mL (EC50).

B2: G996 (Fc fusion)
chain: B1 chain with G21R, A82N
Turning to B2, it took 0.278 µg/mL to reach a half-maximal effect (EC50).

B3: G997 (Fc fusion)
chain: B1 chain with A82N
In the case of B3, the EC50 stood at 0.0166 µg/mL.
